This is an account of results in article PMC8012516, “Antimicrobial peptide DP7 with potential activity against SARS coronavirus infections” (Signal Transduction and Targeted Therapy, 2021).

Assay [1] deals with T1, S-receptor-binding domain (RBD)-Fc of SARS-CoV-2 (SARS-CoV-2, UniProt P0DTC2).
T1 construct: also called S-RBD-Fc of SARS-CoV-2; S-RBD-Fc
As to the kind of experiment: SPR. The conditions noted are these: both partners purified.

The target of assay [2] is angiotensin-converting enzyme 2 (UniProt Q9BYF1 18-805). As to the kind of experiment: SPR; Biacore; who was immobilised and the conditions are not given. As to conditions: both partners purified.
Sequence of angiotensin-converting enzyme 2 (Q9BYF1 18-805): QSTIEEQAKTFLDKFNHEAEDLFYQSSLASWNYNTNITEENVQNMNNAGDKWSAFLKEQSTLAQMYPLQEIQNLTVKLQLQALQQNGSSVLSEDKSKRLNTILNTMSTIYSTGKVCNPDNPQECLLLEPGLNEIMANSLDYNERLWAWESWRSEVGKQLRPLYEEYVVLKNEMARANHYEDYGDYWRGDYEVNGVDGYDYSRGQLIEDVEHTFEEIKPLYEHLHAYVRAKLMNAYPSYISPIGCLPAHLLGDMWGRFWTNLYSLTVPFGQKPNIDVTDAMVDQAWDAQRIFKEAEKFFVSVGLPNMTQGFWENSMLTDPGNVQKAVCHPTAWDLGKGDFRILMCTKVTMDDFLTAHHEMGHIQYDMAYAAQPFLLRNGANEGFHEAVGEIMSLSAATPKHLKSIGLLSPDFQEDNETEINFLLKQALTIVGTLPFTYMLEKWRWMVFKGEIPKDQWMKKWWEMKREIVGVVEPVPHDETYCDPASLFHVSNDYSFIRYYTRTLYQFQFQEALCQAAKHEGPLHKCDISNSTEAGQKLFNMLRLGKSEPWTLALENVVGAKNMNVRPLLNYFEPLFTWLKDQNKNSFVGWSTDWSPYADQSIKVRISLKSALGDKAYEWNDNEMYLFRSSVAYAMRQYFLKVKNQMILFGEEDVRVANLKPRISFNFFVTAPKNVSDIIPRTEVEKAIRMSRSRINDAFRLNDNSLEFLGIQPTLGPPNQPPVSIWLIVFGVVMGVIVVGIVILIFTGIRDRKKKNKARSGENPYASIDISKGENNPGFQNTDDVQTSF

On to VQWRIRVAVIRK (also called antimicrobial peptide DP7) [antibacterial peptide DP7], for which the Kd – broadly, the equilibrium constant for the complex coming apart – in assay [1] was 51.9 nM; in assay [2] it was 227 nM.
